Measured values as given in patent US6156557A, “Alkaline protease from streptomyces sp. and method for preparing the same” (Toto Ltd., priority 1998, dated 2000).

How the values were obtained:
alkaline protease = format: biochemical, Streptomyces sp. TOTO-9305; conditions: for Residual Activity: pH 9
[1] = known alkaline proteases, values from References 1-3; cited from earlier work
casein [2] = conditions: known alkaline proteases, values from References 1-3; cited from earlier work
casein [3] = conditions: known alkaline proteases, values from References 1-3; cited from earlier work; remark: listed apart in the source
keratin = conditions: known alkaline proteases, values from Reference 3; cited from earlier work
[4] = known alkaline proteases, values from References 1-3; cited from earlier work; remark: listed apart in the source

Molecule | inhibition of the activity of the enzyme (in words) (alkaline protease) | Residual Activity (alkaline protease) | Isoelectric Point [1] | Specific Activity: Casein (casein [2]) | Optimum pH: Casein (casein [3]) | Specific Activity: Keratin (keratin) | Optimum Temp. [4]
O=C(O)CN(CCN(CC(=O)O)CC(=O)O)CC(=O)O [EDTA, ethylene-diaminetetraacetic acid] | not inhibited | 91 | – | – | – | – | –
O=C(O)CI [Iodoacetic Acid, iodoacetic acid] | not inhibited | 96 | – | – | – | – | –
O=C(O)c1cc[c]([Hg][Cl])cc1 [PCMB, p-chloromercuribenzoate] | not inhibited | 91 | – | – | – | – | –
O=S(=O)(F)Cc1ccccc1 [PMSF, phenyl methanesulfonyl fluoride] | inhibited | 0 | – | – | – | – | –
CCCCCCCCCCCCOS(=O)(=O)[O-].[Na+] [SDS, sodium dodecylsulfate] | slightly inhibited | 74 | – | – | – | – | –
Subtilisin BPN^1: conventional alkaline protease, subtilisin BPN (protein, UniProt P00782 108-382, looked up) Subtilisin BPN': AQSVPYGVSQIKAPALHSQGYTGSNVKVAVIDSGIDSSHPDLKVAGGASMVPSETNPFQDNNSHGTHVAGTVAALNNSIGVLGVAPSASLYAVKVLGADGSGQYSWIINGIEWAIANNMDVINMSLGGPSGSAALKAAVDKAVASGVVVVAAAGNEGTSGSSSTVGYPGKYPSVIAVGAVDSSNQRASFSSVGPELDVMAPGVSIQSTLPGNKYGAYNGTSMASPHVAGAAALILSKHPNWTNTQVRSSLENTTTKLGDSFYYGKGLINVQAAAQ | – | – | 7.8 | 2,200 U/mg protein | 10.5 | 436 U/mg protein | –
Subtilisin B. subtilis: conventional alkaline protease, subtilisin of B. subtilis (protein, UniProt P04189 107-381, looked up) Subtilisin E: AQSVPYGISQIKAPALHSQGYTGSNVKVAVIDSGIDSSHPDLNVRGGASFVPSETNPYQDGSSHGTHVAGTIAALNNSIGVLGVAPSASLYAVKVLDSTGSGQYSWIINGIEWAISNNMDVINMSLGGPTGSTALKTVVDKAVSSGIVVAAAAGNEGSSGSTSTVGYPAKYPSTIAVGAVNSSNQRASFSSAGSELDVMAPGVSIQSTLPGGTYGAYNGTSMATPHVAGAAALILSKHPTWTNAQVRDRLESTATYLGNSFYYGKGLINVQAAAQ | – | – | 7.5-8.0 | 2,900 U/mg protein | 10.5 | – | 55 °C
Subtilisin Carlsberg: conventional alkaline protease, subtilisin Carlsberg (protein, UniProt P00780 106-379, looked up) Subtilisin Carlsberg: AQTVPYGIPLIKADKVQAQGFKGANVKVAVLDTGIQASHPDLNVVGGASFVAGEAYNTDGNGHGTHVAGTVAALDNTTGVLGVAPSVSLYAVKVLNSSGSGSYSGIVSGIEWATTNGMDVINMSLGGASGSTAMKQAVDNAYAKGVVVVAAAGNSGSSGNTNTIGYPAKYDSVIAVGAVDSNSNRASFSSVGAELEVMAPGAGVYSTYPTNTYATLNGTSMASPHVAGAAALILSKHPNLSASQVRNRLSSTATYLGSSFYYGKGLINVEAAAQ | – | – | 9.8 | 6,500 U/mg protein | 10.5 | 888 U/mg protein | 50 °C
